The nature of the data set: yeast display, Sf9 membrane polyspecificity reagent, FACS + sequencing; frameworks hold sequencing errors. The gist of the method: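 Galactose-induced (36–48 hours) yeast carrying a synthetic nanobody display library were exposed to 10% biotinylated, detergent-solubilized Sf9 membrane reagent at 4 °C for 1 hour. FACS followed streptavidin microbead enrichment, using low and high (top ~1%) gates for expression (anti-HA) and reagent binding (streptavidin). Colony PCR, MiSeq 2 × 250 sequencing and CDR-length filtering followed. Labels for polyreactivity reflect the gate of origin.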
On to “QVQLVESGGGIVQAGGSLRLSCAASGSIFARYAMGWSRPAPGKERELVAAISGRGGSTYYADSVKGRFTISRDHATNTDYLQMNSLKPEDTAVYYWNAVWDDYGFYSPYVVVEYDYWGQGTQVTVSS”, for which the “polyreactivity (PSR sort gate)” value is recorded as “high polyreactivity”.

Regarding “QVQLVESGGGIVQAGGSLRLSCAASGSIFRRNALGWYRQAPGKERELVAAISSIGSSTYYADSVKGRFTISRENAKNTVYFQMNSLKPEDTAVYYCAAVFYYATYSKKFEYWGQGTQVTVSS”, the “polyreactivity (PSR sort gate)” value is given as “high polyreactivity”.

For the sequence “QVQLVESGGGIVQAGGSLRLSCAASGSIFVTNTMVWYRQAPGKERELVAAISYRGGSTYADSVKGRFTISRDNAKNTVYLQMNSLKPEDTAVYYCAADDLSFVGYYYGYVDDVYCGQGTQVTVSS”, the “polyreactivity (PSR sort gate)” value is “high polyreactivity”.

For “QVQLVESGGGIVQAGGSLRLSCAASGSIFYAYAMGWYRQAPGKERELVAAINRGDSTTYADSVKGRITISRDNAKNTVYLQMNSLKPEDTAVYYCAKSRPSRKYYAGVTGQGDYWGQGTQVTVSS”, the “polyreactivity (PSR sort gate)” value is on record as “low polyreactivity”.

Turning to “QVQLVESGGGIVQAGGSLRLSCAASGSILSYYAMGGYRQAPGNEREFVAAISWGTITNYADSVKGRFTISRDNAKKTVYLQMNSLKPEDTAVYYCNADPYGWYSSDYDYWGQGTQVTVSS”, the “polyreactivity (PSR sort gate)” value was “low polyreactivity”.

In the case of “QVQLVESGGGIVQAGGSLRLSCAASGSILYPYAMGWYRQAPGKERELVAAISRGGSTNYADSVKGRFTISRDNAKNTVYLQMNSLKPEDTAVYYCATAYTRFSQRYEYYVIYWQNDYWGQGTQVTVSS”, the “polyreactivity (PSR sort gate)” value is “low polyreactivity”.

Regarding “QVQLVESGGGIVQAGGSLRLSCAASGSNLQYKAMGWYRQAPGKERELVADITSSGGSTYYADSVKGRFTISRDNAKNTVYLQMNSLKPEDTAVYYFAKDTHWAYYWGQGTQVTVSS”, the “polyreactivity (PSR sort gate)” value is reported as “low polyreactivity”.

On to “QVQLVESGGGIVQAGGSLRLSCAASGSSHGYAMGWYRQAPGKERELVAAISLNTGSTYYADSVNGRFTISRDNAKNTVYLQMNSLKPEDTAVYFCNADDYTYATYEYDYWGQGTQVTVSS”, for which the “polyreactivity (PSR sort gate)” value is “low polyreactivity”.

Take “QVQLVESGGGIVQAGGSLRLSCAASGSTFETNAMGRDRQAPGKERELVAAIRWSTGNTYYADSVNGRFTISRDNAKNTVYLQMNSLITEDTAVYYCAAYKAKHYKDGYWGQGTQVSVSS”: the “polyreactivity (PSR sort gate)” value was “low polyreactivity”.

Consider “QVQLVESGGGIVQAGGSLRLSCAASGSTFRYYARGWSRQAPGKERELVATITCNAAGTYYADSVKGRFTISRDNAKNTVYLQMNSLKPEDTAVYYCAAAPWEWYHYGYYYWGQGTQVTVSS”, for which the “polyreactivity (PSR sort gate)” value is given as “low polyreactivity”.

In the case of “QVQLVESGGGIVQAGGSLRLSCAASGSTFSYYDMGWYRQAPGKERELVAAISWNGGTTYYADSVKGRFTISRDNAKNTVYLQMNSLKPEDTAVYYCAATWDFYWAPYDSWGQGTQVTVSS”, the “polyreactivity (PSR sort gate)” value was “low polyreactivity”.

Regarding “QVQLVESGGGIVQAGGSLRLSCAASGSTFVTHAMGCYRQAPGKEREFVAAISWNSTSTYFADSVKGRFTISRDHAKNTVYLQMNSLKPEDTAVYYCNATTFAFSPSLKGAYGYWGQGTQVTVSS”, the “polyreactivity (PSR sort gate)” value is given as “low polyreactivity”.

Regarding “QVQLVESGGGIVQAGGSLRLSCAASGSTFYVYAMGWYRQAPGKERELVAAITVRGGSTYYADSVKGRFTISRDNAKNTVYLQMNSLKPEDTSVDYCNAEGTYGYWRSYNYWGQGTQVTVSS”, the “polyreactivity (PSR sort gate)” value was “high polyreactivity”.

For “QVQLVESGGGIVQAGGSLRLSCAASGSTIGYYAMGWSRQAPGKERELVAAISRRGGSTYYADSVKGRFTISRDNAKNTVYLQMTSLKPEDTAVYYCAADRRIGDGENYYWGQGTQVTVSS”, the “polyreactivity (PSR sort gate)” value was “high polyreactivity”.

“QVQLVESGGGIVQAGGSLRLSCAASGYTFGTYAMGWYRQAPGKERELVAAITSTGGRTYYADSVKGRFTISRDNAKNTVYLQMNSLKPEDTAVYYCAAERVYRTIWHYPYYYWGQGTQVTVSS”: the “polyreactivity (PSR sort gate)” value is “high polyreactivity”.

On to “QVQLVESGGGIVQAGGSLRLSCAASYYDMGWYRQAPGKERELVASISSGGSTNYADSVKGRFTISRDNAKNTVYLQMNSLKPEDTAVYYCAADVADGVWVKIADEYWGQGTQVTVSS”, for which the “polyreactivity (PSR sort gate)” value is “low polyreactivity”.

Turning to “QVQLVESGGGIVQAGGSLRLSCASSGRTFFWYAMVWYRQAPGKERELVAAITYRGGGTYYADSVKGRFTISRDNAKNTVYLQMNSLKPEDTAVYYCAAEYWVGVYLYDYWGQGTQVTVSS”, the “polyreactivity (PSR sort gate)” value is “high polyreactivity”.

On to “QVQLVESGGGIVQAGGSLRLSCDASGNTFKGYAMGWYRQAPGTESELVAAISWSGSSTYYADSLKGRFTISRDNAKNTVYFQLNSLKQEDPAVFSCNRKYLGRYASVYGYGYWGQGTQVTVSS”, for which the “polyreactivity (PSR sort gate)” value is reported as “high polyreactivity”.

As to “QVQLVESGGGIVQAGGSLRLSCSASGSIFPLDGMGSYRQAPGKERELVAAISIGGRTNYADSVKGRFTISRDNAKNTVYLQMTSLKPEDTAVYYCNAVSKFVYRNRILWYDYWGQGTQVTVSS”, the “polyreactivity (PSR sort gate)” value is “high polyreactivity”.

As for “QVQLVESGGGIVQAGGSLRLSGAASGFTLTSYAMGWYRQPHGNERELVAGISRGGITYYADSVKGRFTISSDNAKNTVYLQMNSLKPEDTAVYYCATEASFYDPDMYPYGYDYWGQGTQVTVSS”, the “polyreactivity (PSR sort gate)” value is recorded as “high polyreactivity”.

Turning to “QVQLVESGGGIVQAGGSLRLSSAASGFIFARYAMGWYRQAPGKERELVAAISSGGRTYYADSVKGRFTISRDNAKNTVYLQMNSLKPEDTAVYYCAADPASSYGKYSYYYWGQGTQVTVSS”, the “polyreactivity (PSR sort gate)” value was “high polyreactivity”.

As to “QVQLVESGGGIVQAGGSLRLSSAASGFTFYKYVMGWYRQSPGKERELVAAISYSSGSTYYADSVKGRFTISRDNAKNTVYLKMNSLKPDDTAVYYCAADSTYYGYAYYYWGQGSQVTVSS”, the “polyreactivity (PSR sort gate)” value is recorded as “high polyreactivity”.

Take “QVQLVESGGGIVQAGGSLRLSSAASGSTFYTKSIGWYIQAPGKERELVAAISGSGGSTYYADSVKGRFTISRDTAKNTVYLQMISLKPEDTAVYSCAARSRYYDTRFDYWGQGTQVTVSS”: the “polyreactivity (PSR sort gate)” value is recorded as “low polyreactivity”.

On to “QVQLVESGGGIVQAGGSLRLSWAASGSIFDKYAMGWYRQAHGKERELVAAIDSGDTYYADSVKGRFTISRDNAKNPVYFQMNSLKPEDTAVYYWAADDVQYEYDYWGQGTQVSVSS”, for which the “polyreactivity (PSR sort gate)” value was “low polyreactivity”.

As to “QVQLVESGGGIVQAGGSLRLTCAASGFTFFYNAMGWYRQAPGKERELVAAITTNGGSTYYADSVKGRFTISRDNANNTVYLQMNSLKTEDTAVYYFAAEYGITEYDYWGQGTQVTVSS”, the “polyreactivity (PSR sort gate)” value is “low polyreactivity”.

For “QVQLVESGGGIVQAGGSLRVSCAASGSIFLDNAMGWYRQAPGKERELVADISYSGGSTYYADSVKGRFTISRDNAKNTVYLQMNSLKPEDTAVYYCAAGVQLTVPPLRSSVTEYDYWGQGTQVTVSS”, the “polyreactivity (PSR sort gate)” value was “low polyreactivity”.

For “QVQLVESGGGIVQAGGSLRVSCVSSGRTCSRYAMGWSRQAPGKDRELVAAISRRGGSTYYADSVKGRFTISRDNAKNTVYLQMKSLKREDTAVYYCAAGYITWGSGNWVVTPYDYWGQGSQVTVSS”, the “polyreactivity (PSR sort gate)” value is reported as “high polyreactivity”.

For “QVQLVESGGGIVQAGGSLSLSCAASGYNFTQNAMGGYRQAPGKERELVASITSGGSTDYADSVKGRFTISRDNAKNTVYLQMNSLKPEDTAVYYCAAEFHFWGYLYDYWGQGTQVTVSS”, the “polyreactivity (PSR sort gate)” value is recorded as “low polyreactivity”.

For the sequence “QVQLVESGGGIVQAGGSLSLTWAASGSTFAYYAMGRYRQAPGKERELVAAISSSGGRTYYADSVKWRFTISRDNAKNTVYLQMIMLKPEDSAVYYCWGQATQVTVSS”, the “polyreactivity (PSR sort gate)” value was “low polyreactivity”.

As to “QVQLVESGGGIVQAGGTLRLSCAASGSTFKNKAMGCNRHAPGKETEFVAGITRRGTSTYYADSVKGRFTISLDNAKNSVYLQMNSLKPEDTSVYYCAARAWYPSRYDYWGQGTLVTVSS”, the “polyreactivity (PSR sort gate)” value was “high polyreactivity”.

Values taken from the nanobody polyreactivity screen of Harvey et al. (2022).
